Consider one protein from PMC4297981 (Scientific Reports, 2015).

The data set concerns the molecule itself. Put plainly: SDS-PAGE.

B1: integrin β1a-TMC variant L749C (transmembrane and cytoplasmic domains, V717-K798, cys-less background), reconstituted in POPC/POPG liposomes (domain or fragment, human, UniProt P05556-1 717-798, looked up)
chain: VVENPESPTGPDIIPIVAGVVAGIVLIGLALLCIWKLLMIIHDRREFAKFEKEKMNAKWDTGENPIYKSAVTTVVNPKYEGK
Turning to B1, the binding result is given as “binds”.
